Assay results taken from patent US20250051417A1.

Key:
[1] = molecular target: costimulation antibodies on the antigen presenting beads (biotinylated anti-CD28 and biotinylated anti-CD2); test: flow cytometry of stained beads, calibrated; divided by the bead surface area
[2] = molecular target: costimulation antibodies on the antigen presenting beads (biotinylated anti-CD28 and biotinylated anti-CD2); test: flow cytometry of stained beads, calibrated; divided by the nominal bead surface area
[3] = molecular target: costimulation antibodies on the antigen presenting beads (biotinylated anti-CD28 and biotinylated anti-CD2); test: flow cytometry of stained beads, APC intensity calibrated with Quantum Simply Cellular beads; assumes 1 detection antibody per costimulation antibody
[4] = molecular target: biotinylated Monomer MHC (HLA-A* 02:01 SLC45A2 (Biolegend, Custom Product, … (SEQ ID NO: 2)) (human)); test: flow cytometry of stained beads, calibrated; divided by the bead surface area
[5] = molecular target: biotinylated Monomer MHC (HLA-A* 02:01 SLC45A2 (Biolegend, Custom Product, … (SEQ ID NO: 2)) (human)); test: flow cytometry of stained beads, calibrated; divided by the nominal bead surface area
[6] = molecular target: Biotinylated peptide-Human Leukocyte Antigen complexes (pMHC); test: flow cytometry of stained beads, APC MFI calibrated with Quantum Simply Cellular beads; silica bead
[7] = molecular target: Biotinylated peptide-Human Leukocyte Antigen complexes (pMHC); test: flow cytometry of stained beads, APC MFI calibrated with Quantum Simply Cellular beads; polymeric bead

## APC-conjugated monoclonal anti-Mouse-IgG1 (Biolegend, Catalog Number 406610) (antibody)
[1]
  Costimulation Antibody Density (molecules/sq micron): 15600
[2]
  Costimulation Antibody Density (molecules/sq micron): 17300
[3]; M-280 convoluted polymer beads
  Costimulation antibodies/bead (anti-Mouse IgG1 antibodies bound per bead) (antibodies/bead): 427000
[3]; substantially spherical silica beads
  Costimulation antibodies/bead (anti-Mouse IgG1 antibodies bound per bead) (antibodies/bead): 845000

## APC-conjugated anti-HLA-A (Biolegend, Catalog Number 343308) (antibody)
[4]
  pMHC Density (molecules/sq micron): 14800
[5]
  pMHC Density (molecules/sq micron): 19800

## anti-HLA-A conjugated to APC (Clone BB7.2, Biolegend) (antibody)
[6]
  Ligands/Bead (detection antibodies bound per bead): 604000 Ligands/Bead
  Ligands/sq um (Ligands/sq um): 12000
[7]
  Ligands/Bead (detection antibodies bound per bead): 487000 Ligands/Bead
  Ligands/sq um (Ligands/sq um): 19800
